This note sets out measurements from patent US20200247855A1, “THERAPY AND DIAGNOSTICS” (OXFORD UNIVERSITY INNOVATION LIMITED, priority 2017, published 2020).

The term Kd denotes the equilibrium constant for the complex coming apart.

Changes are numbered by the printed parent chain.

The labels stand for the following.
B1: P1181_AMBMA: tick CKBP, Amblyomma maculatum (protein, listed as Amblyomma maculatum)
chain: EEREDDNDYGGGCPFVVLGNGTHAKPAGCSHLCNGAPETLDNIECYNVTEEVAKRMTPDIPYTCWLGWCSKGECKRDNRTEVCYRGSERE
B2: P1180_AMBTR: tick CKBP, Amblyomma triste (protein)
chain: EEPKDGYDYTEGCPFVVLGNGTHAKPAGCSHLCNGAPETLDDNMECYNVTEEVAKRMTPDIPYTCWLGWCSKGECKRDNRTEVCYRGSERE
modifications: Amblyomma triste
B3: P1182_AMBMA: tick CKBP, Amblyomma maculatum (protein, listed as Amblyomma maculatum)
chain: EPKDDNDYGGGCPFVVLGNGTHAKPAGCSHLCNGAPETLDNIECYNVTEEVAKRMTPGIPYACWLGWCNKGECKRGNRTEVCYRGSEEE
B4: P983_AMBPA: tick CKBP; named P983_AMBCA in Table 1 (protein)
chain: EDTGTEDDFDYGNTGCPFPVLGNYKSNMTKPVGCKNKCGSGYEVLNDTTPCYVIDQKVFNNMVPLRQYSKCPLGFCENGECKPNDQAEDCYKGREEQK
modifications: Amblyomma cajennense
B5: P1063_AMBTR: tick CKBP, Amblyomma triste (protein)
chain: QSEVGKNVPGCGDTETLEAPPQEKPPYYEYKDEEGCTQKVLESWFQAGERSTGRGQKKRGHGRRPSRVLRTVDCRKNCTVGITALPDGHLCLVPRGDPFTRGGAIKYGCYLGDCASGHCQHRYETVSCRLPAPDTTAKPYYVTPEK
modifications: Amblyomma triste
B6: P1283_IXORI: tick CKBP, Ixodes ricinus (protein, listed as Ixodes ricinus)
chain: KEPEDTTLPPGALVDSPDSDNCSSPHLPYFDETTNMWMGFLAVNCTKKCPVGKHVTVVDGNKCIGTWSFLDELTITVLVGSCKDGFCETDGSSECRNITLAEEDSQEEEGAAAEEEDEEDEEDEEEEEAEEEREDDHDDA
B7: P1174_IXORI: novel CXC-binding tick CKBP, Ixodes ricinus (protein, listed as Ixodes ricinus)
chain: LNNENELFSVEYCGANCTQQDNGSWTKCKGNCTCYHEDGKRYGLCLSTEYTDFTQFPKPTSEEIADASPRPKETNSH
B8: P1127_IXORI: novel CXC-binding tick CKBP, Ixodes ricinus (protein, listed as Ixodes ricinus)
chain: AGKDDEHFSVDYCGMNCTQQEDGSWTACSGRNGECRCYHESGKRSGLCLSTTYIDFSEYGNLSDSDIAAASPRLSMKESH
B9: P1128_IXORI: novel CXC-binding tick CKBP, Ixodes ricinus (protein, listed as Ixodes ricinus)
chain: KDDEHFSVDYCGMNCTQQEDGSWTACSGRNEECRCYHESGKKNGLCLSTTYIDFSQYGNPSDSDIAAASPRP
B10: P1170_IXORI: novel CXC-binding tick CKBP, Ixodes ricinus (protein, listed as Ixodes ricinus)
chain: LGDEDQLFSVEYCGTNCTQQDDGKWTPCSGKNGKCKCYHEDGKRYGLCLYTEYTDFSQYPNPEGSEIENTRPRP

Sequence of CCL7_HUMAN (P80098 24-99): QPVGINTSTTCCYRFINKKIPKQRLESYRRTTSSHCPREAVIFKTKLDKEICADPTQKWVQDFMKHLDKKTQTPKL
Sequence of CCL3L1_HUMAN (P16619 24-93): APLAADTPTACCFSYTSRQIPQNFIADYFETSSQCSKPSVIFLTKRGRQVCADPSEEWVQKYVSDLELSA

One test deals with CCL11_HUMAN (Homo sapiens, UniProt P51671). Nature of the test: Biolayer interferometry (BLI) binding.
Sequence of CCL11_HUMAN (P51671 24-97): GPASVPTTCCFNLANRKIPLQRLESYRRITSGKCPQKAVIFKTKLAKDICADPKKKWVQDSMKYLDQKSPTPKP
Settings: not given
On the procedure: (§1) Table 1. Tick CKBPs described in PCT/GB2017/050563 and [17]. Tick peptide sequences isolated in yeast surface display fluorescent-activated cell sorting (FACS) screens using a labelled chemokine. Identity with Evasin-1, 4 or 3 was calculated using BLAST. Abbreviations: IXORI—Ixodes ricinus, RHISA—Rhipicephalus sanguineus, AMBMA—Amblyomma maculatum, AMBPA—Amblyomma parvum, AMBTR—Amblyomma triste, AMBAM—Amblyomma americanum, AMBCA—Amblyomma cajennense, RHIPU—Rhipicephalus pulchellus. Table 2A-C. Binding characteristics of tick CKBPs previously disclosed (PCT/GB2017/050563 and [17]). All members of the human chemokine family[164] are listed in column 1. Binding to human chemokines was determined for 14 tick CKBPs using biolayer interferometry (BLI) with calculated Kd shown as Molar (Moles/Litre). Binding data for 17 other novel tick CKBPs was assayed using yeast surface display[17,166],with positive binding results shown as “YES”. For biolayer interferometry, His-tagged purified tick CKBP was bound to a Ni-NINTA sensor on an OctetRed® 384 system, and then binding to each chemokine listed (with the exception of CCL25, CCL26, CXCL16, CXCL17, CXCL4L1, XCL2) was assayed in a cross-binding screen at a chemokine concentration of 300 nM as described. For those chemokines showing binding to a tick CKBP in the cross-binding screen, binding assays were repeated using different doses of chemokine. Association, equilibrium and dissociation data were analysed using Octet software to create corresponding fitted curves, and used to calculate Kd. For yeast surface display, (YSD) background fluorescence was controlled for by using either an empty vector or by omitting the chemokine (i.e. using streptavidin-Alexa647 alone). An arbitrary threshold of >3 fold over background mean fluorescence intensity was chosen to describe confirmed re-tests. Where binding was detected data are indicated as “YES”. […] For yeast surface display data, empty cells represent chemokines that were not tested. Binding data published in relation to previously described tick CKBPs (Evasins-1, 4 and 3) is also shown for comparison in each of FIGS. 2A-C, with the relevant data obtained from publications: [20-22,32]. Table 3: Neutralisation of human chemokines by tick CKBPs previously disclosed (PCT/GB2017/050563 and [17]). Neutralising activity was determined using a quantitative THP1 cell migration assay in a 96-well Boyden chamber with chemokine in the bottom chamber as described. Cells migrating through to the bottom chamber at 4 hours were counted using flow cytometry in a 96 well plate format. IC50 for neutralisation was determined at the chemokine EC80 dose as determined using a range of tick CKBP concentrations. Data was analysed using GraphPad Prism to determine IC50, which is shown as Molar (Moles/Litre). Empty cells represent experiments not done. Table 4—Other previously described tick CKBPs. Tick CKBPs that were also described in PCT/GB2017/050563 and Singh et al. are indicated in “Notes”. Table 5.—Novel tick CKBPs of the invention. Table 6. […] The peptide sequence prefix indicates the identity, and suffix indicate the tick species as follows: AMBCA, Amblyomma cajennense and IXORI, Ixodes ricinus. […] Certain tick peptides e.g. P1074_IXORI were recovered from screens performed with more than one chemokine. Individual yeast clones recovered from the library were re-tested using a FACS (fluorescence activated cell sorting), experiment. The binding of the peptide to the chemokine was assayed by measuring the percent (%), of yeast cells expressing the given peptide that exceeded a background threshold set by measuring the fluorescence of the yeast library pool treated with streptavidin-[…] alone. When more than one independent yeast clone was isolated for a given peptide-chemokine combination, the mean percent shift was calculated and reported in column 3. […]
(In general: BLI is a label-free optical method that tracks binding on a fibre tip over time.)
For the molecule B1, the Kd was 20 nM.
Regarding B2, the Kd was 33 nM.
Same read-out and setting: the figure for B3 is 28 nM; for B4 it is 21 nM.

In the next test the target is CCL13_HUMAN (Homo sapiens, UniProt Q99616). Nature of the test: Biolayer interferometry (BLI) binding.
Sequence of CCL13_HUMAN (Q99616 17-98): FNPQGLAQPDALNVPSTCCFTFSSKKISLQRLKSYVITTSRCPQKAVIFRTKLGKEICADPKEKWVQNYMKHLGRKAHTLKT
Settings: not given
As to the method:
as §1
As to B1, the equilibrium dissociation constant (Kd) was found to be 19 nM.
Same read-out and setting: the figure for B2 is 9 nM.
Take B3: the Kd was 56 nM.
As to B4, the Kd was 17 nM.

The next test addresses T1, CCL14_HUMAN (Homo sapiens, UniProt Q16627).
T1 sequence (Q16627 20-93): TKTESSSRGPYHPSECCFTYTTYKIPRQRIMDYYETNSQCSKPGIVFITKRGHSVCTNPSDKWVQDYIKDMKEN
Nature of the test: Biolayer interferometry (BLI) binding.
Settings: not given
On the procedure: as §1
Take B1: the Kd is 47 nM.
Same read-out and setting: the figure for B2 is 4.4 nM.
In the case of B3, the Kd was 50 nM.
The same measure, in the same setting: to B4 belongs 81 nM.

A further test deals with T2, CCL18_HUMAN (Homo sapiens, UniProt P55774).
T2 sequence (P55774 21-89): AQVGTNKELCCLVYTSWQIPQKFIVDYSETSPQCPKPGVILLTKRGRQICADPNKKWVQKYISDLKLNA
Nature of the test: Biolayer interferometry (BLI) binding.
Settings: not given
On the procedure: as §1
For the molecule B1, the equilibrium dissociation constant (Kd) came out at 10 nM.
Regarding B2, the dissociation constant (Kd) worked out at 5.8 nM.
With B3, the dissociation constant Kd was 33 nM.

Another test deals with CCL2_HUMAN (Homo sapiens, UniProt P13500). Nature of the test: Biolayer interferometry (BLI) binding.
Sequence of CCL2_HUMAN (P13500 24-99): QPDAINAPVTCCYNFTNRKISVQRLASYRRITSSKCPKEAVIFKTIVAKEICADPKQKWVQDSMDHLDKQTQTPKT
Settings: not given
As to the method: as §1
Turning to B1, the dissociation constant (Kd) is 74 nM.
B2: the Kd amounted to 53 nM.
The same measure, in the same setting: the figure for B3 is 74 nM.
Same read-out and setting: to B4 belongs 14 nM.

The next test concerns the target CCL3L1_HUMAN (Homo sapiens, UniProt P16619). Nature of the test: Biolayer interferometry (BLI) binding.
Settings: not given
As to the method: as §1
As to B1, the Kd is 3.3 nM.
The same measure, in the same setting: to B2 belongs 2.2 nM; to B3, 9.5 nM.
As to B4, the Kd came out at 2.1 nM.

For a further test, the target named is T3, CCL3_HUMAN (Homo sapiens, UniProt P10147).
T3 sequence (P10147 24-92): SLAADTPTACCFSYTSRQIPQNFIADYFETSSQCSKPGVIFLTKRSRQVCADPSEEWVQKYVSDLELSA
Nature of the test: Biolayer interferometry (BLI) binding.
Settings: not given
On the procedure:
as §1
With B1, the Kd was determined as 2.2 nM.
The same measure, in the same setting: to B2 belongs 1.1 nM.
The same measure, in the same setting: the figure for B3 is 5.4 nM; for B4 it is 3.5 nM.

The target in the next test is T4, CCL4L1_HUMAN (Homo sapiens, UniProt Q8NHW4).
T4 sequence (Q8NHW4 24-92): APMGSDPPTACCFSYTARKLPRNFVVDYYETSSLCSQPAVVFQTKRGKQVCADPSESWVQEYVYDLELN
Nature of the test: Biolayer interferometry (BLI) binding.
Settings: not given
On the procedure:
as §1
As for B1, the dissociation constant (Kd) stood at 35 nM.
The same measure, in the same setting: the figure for B2 is 20 nM; for B3 it is 92 nM.

In the next test the target is T5, CCL4_HUMAN (Homo sapiens, UniProt P13236).
T5 sequence (P13236 24-92): T4 sequence (Q8NHW4 24-92) with G47S
Nature of the test: Biolayer interferometry (BLI) binding.
Settings: not given
On the procedure: as §1
B1: the Kd came to 53 nM.
Same read-out and setting: to B2 belongs 66 nM.
On to B3, for which the Kd was found to be 63 nM.
Still for that read-out and setting: to B4 belongs 8 nM.

The next test concerns the target CCL7_HUMAN (Homo sapiens, UniProt P80098). Nature of the test: Biolayer interferometry (BLI) binding.
Settings: not given
As to the method:
as §1
B1: the equilibrium dissociation constant (Kd) came out at 120 nM.
Still for that read-out and setting: to B2 belongs 98 nM; to B4, 32 nM.

Another test deals with T6, CCL8_HUMAN (Homo sapiens, UniProt P80075).
T6 sequence (P80075 24-99): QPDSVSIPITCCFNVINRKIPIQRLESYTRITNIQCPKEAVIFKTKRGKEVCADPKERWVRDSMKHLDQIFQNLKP
Nature of the test: Biolayer interferometry (BLI) binding. The settings on record: read-out: Kd, CCL8_HUMAN. As to the method:
as §1
Take B1: the Kd was 14 nM.
As for B2, the dissociation constant Kd was found to be 3.6 nM.
For B3, the Kd worked out at 29 nM.
Turning to B4, the dissociation constant Kd is 7 nM.

A further test addresses T7, CCL5_HUMAN (Homo sapiens, UniProt P13501).
T7 sequence (P13501 24-91): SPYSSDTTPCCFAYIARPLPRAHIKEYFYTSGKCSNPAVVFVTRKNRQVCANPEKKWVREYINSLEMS
Nature of the test: Yeast surface display (YSD) FACS binding.
Settings: not given
As to the method: as §1
On to B5, for which the “Binding to CCL5_HUMAN, YSD” value was “YES (An arbitrary threshold of >3 fold over background mean fluorescence intensity was chosen to describe confirmed re-tests. Where binding was detected data are indicated as “YES”)”.

The target in another test is T8, CXCL10_HUMAN (Homo sapiens, UniProt P02778).
T8 sequence (P02778 22-98): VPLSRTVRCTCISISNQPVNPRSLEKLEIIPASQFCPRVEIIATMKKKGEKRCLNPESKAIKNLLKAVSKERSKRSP
Nature of the test: Yeast surface display (YSD) FACS binding. The settings on record: yeast surface display. On the procedure:
as §1
Regarding B6, the “Binding to CXCL10_HUMAN, YSD” value is recorded as “YES (An arbitrary threshold of >3 fold over background mean fluorescence intensity was chosen to describe confirmed re-tests. Where binding was detected data are indicated as “YES”)”.

The next test deals with T9, CXCL8_HUMAN (Homo sapiens, UniProt P10145).
T9 sequence (P10145 21-99): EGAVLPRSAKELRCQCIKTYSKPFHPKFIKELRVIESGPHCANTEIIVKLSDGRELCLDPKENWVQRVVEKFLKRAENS
Nature of the test: Yeast surface display (YSD) FACS binding. On the set-up: label (chemical). The settings on record: FACS re-test; mean percent shift where several clones. On the procedure: as §1
For orientation: Flow cytometry measures light scatter and fluorescence of single cells or particles in a stream.
B7: the “Chemokines bound in yeast surface display and % cells over threshold fluorescence: CXCL8_HUMAN” value is given as “CXCL8_HUMAN 29%”.
On the same count and under the same terms, the entry for B8 is “CXCL8_HUMAN 43%”.
Turning to B9, the “Chemokines bound in yeast surface display and % cells over threshold fluorescence: CXCL8_HUMAN” value was “CXCL8_HUMAN 53%”.
The same measure, in the same setting: to B10 belongs “CXCL8_HUMAN 81%”.
